{
  "source": "a protein production outcome set (Wang et al. 2014)",
  "assay": "label from the status in PepcDB records",
  "data": [
    {"sequence": "MTPDRKGDGGPSPLGDLKDALGGYLSAAGHGLVGRAGDRLGSLTDRLTESADGGGANGGTGGSEPGTGGSRSGSDGSKSGSGGSKSGSGGSKSGGSVKATHIMETVDIGVPLRTVYDQWTQLQDFSDFTKGVQSVSPHDETTSDWTAKIAFSTRSWKATVQEQIPDQRIVWTSEGAKGSTNGVVTFHELAPRLTRVVVVVEYYPAGFFEKTGNLWRAQGRRLRLDLKHFARHVTMTDAEEIEGWRGEIRDGEVVKSHEEALEEDEDAADEYEDDEEGEYDEEESDGEVPDGEEEPYADEDDGEYENDDAYEADDEDDERARPRR", "values": [
      {"measurement": "protein production", "value": "failed"}
    ]},
    {"sequence": "MTPEPDGPEDRLRRFATIWSRAVFPVTSTPLTRPELENRLLPLARRLSEALRARAFDAAEAKAVGAALIDAHCTDPDALSATLDCVDAYLVLYCGTPDASPGDQEALRTRASRLQHAMAAGFAQALRERTLAEQEAISVAALQAQGVVGQALHASEARFRAVFEGAAIGIGIADLEGNILQINGALLRMFGGSEQAVRGRNVTDWTHPDDAPQVWRLYEELVRGEREHYHVEKAFYRPDGTVLWTNLTVSLLRDADGRPEYQLALMEDTTERRLLNLRLRYEATHDALTGLPNRTLFFERLEKALSAGGGQRFGLCYLDLDGFKTINDSLGHAAGDRLLVEVADRLQSCATAPGEMVARLGGDEFVALTTGPDTEREVDELAGRIMNALVTPISIDGRELAVRGSIGIVEGPAGERGPAEVLRSADITMYRAKSAGGNRFELADPEADARAITRHGLTTALPAALDRNEFFIEYQPLVHLGDGSVRGAEALVRWLHPQHGVLGPDRFIPLAEHTGLIVPLGRWVLEQSVRQAREWQERHCAEAAAPLRINVNLSPCQLTHPGLVSDTVDILERSGLEPGALCLEVTESALIGADDDLLKPLRRLAEMGVDIALDDFGTGYSNLANLRRLPVSILKLDRSFTQGMQQYPADPVDLKIVEGIVTLAHSLDLAVTVEGVETGAQAEQLRILGCDTAQGWYYARPGPPERLHELALVDATG", "values": [
      {"measurement": "protein production", "value": "failed"}
    ]},
    {"sequence": "MTPFTVDILIPIWNRPVETRNCLVTLMETTPSARLILIDNGSDRETERLLEEFSEILGERALFLKTSANQGFVRAVNRSLAQVEAPYAVVMQNTTLVTRGWLEPMVELADSRPDAGIIVPRLELEDGQGRRPKAAPPAGPVTEVSHGSFAASMVRRELVERQGGFDEELDGGPWCLRDYSRRAFRNGFLTLALDGAVVTYAEEVPLGSVARREETVRRSAETCRARWGREDAFCIYFPKDAEPEAVHGKLDVILRGARMGQCFTLILHPGLHKSLMETGHAPLHSNIALAPLPRFFATGEIRKIIGKLASVRGDTVTVAGVDGLSIPGVEGARSFSWLADEIRRRHESLYRPESPLEHHHHHH", "values": [
      {"measurement": "protein production", "value": "not failed"}
    ]},
    {"sequence": "MTPHATPAPRVSAIVSLYNAERFVRGCLDDLLGQTLADSLEIIVIDACSPQGEGAIVQDYMRDHPNIVYVRTDEREGVYASWNRGVRLARAPYVTNANADDRHREDALERLAAALDEAPEAGFAYGDCRVGQTENERYADNAGQRVMRFPDFFAPATLLYCQLGPQPLWRRSVHDVVGFFDESYRACADWDFDIRLAAAFRGIHVPDALGLYLEHEAAITFRDDTMTRENDRVQRQWQHPEAVEERYRAAGVPCHTAEERALVHFDMALRALRFYPPWCYGAPAHNPGFARRCLRHALRLAPALAPAKELLALPDAVLTALDDLPSPLGLPSQATLAGVAAPLEHHHHHH", "values": [
      {"measurement": "protein production", "value": "failed"}
    ]},
    {"sequence": "MTPIPLINIPLCNLAGDGYILSEKSQSQNMLRGIVMSETVRVGLLGYGYASKTFHAPLIAGTAGMELVAVSSSNAEKVHADWANLRVEKDPQALFSDPDIDLIVIPTPNDTHFPLAKQALEAGKHVVVDKPFTVTLSQAYDLGAIAERAGKVLSVFHNRRWDSDFLTLKQLLSAGTLGNVVYMESHFDRFRPEVRQRWREDGSEGSGIWYDLGPHLLDQALELFGLPVAIQVDMAQLRPGSKATDYFHATLIYPQRRVILHASMLVAAASARYTVHGTRGSFVKYGLDPQEDRLKAGERPPLADWGQDKHDGVLTLSRDGITAEQTIATIPGNYPAYYAAVRDALLGKGENPVGVNQAIQVMELIELGLLSHEQKKAVALKNSLEHHHHHH", "values": [
      {"measurement": "protein production", "value": "failed"}
    ]},
    {"sequence": "MTPLAEDFGAQGDAATRARWMALVEKTLKGQSFDDALTITTADGLTIQPLYTAEDGVAVARDLRARDTDRPWDLRMRAAHPDPIRAAKDVLTDLEGGAASVLLQIDPTGVNGVAIGSADDLGKALSGVLLDLAPVALDAGFLGPKAADWLGALAKAAPNAPLAFHLDPLTAFAQTGVSPGPIESHVFNAATVATRLSATYARASLFLATGRTAHEAGGSNVEELALMTAAALAYAKALVRSGLTIEEAFGRIALGVSLDGEYFTGVAKVRAAKALWARLTESCGVTVAPTIEARSSRRMLAKADAWTNLLRLTSAGFAGAVGGADAIVLDAFTDAIGLPTAFARRQARNTQLVLMEESHLGRVADPAGGAWYLDSLTDQLARAAWASFQAIEAAGGVIKALESGLVADAVAKSRTAQEAAYADKSRKILGVTVFPNADDKPPEVETPDSSAFAVQGPDVRLPGPDSHCPALTPVRFAAAFEGA", "values": [
      {"measurement": "protein production", "value": "failed"}
    ]},
    {"sequence": "MTPLLTAYLQAWKQYFDFSGQTTRDDFWWFMLAHLLITLVVVSIEIATNNPGWLDLFYSLISFIPMLAILVRRLHDTQRSGWWAWLFVIPVIGPFWLIYLLVQPSSSHFTDKALLS", "values": [
      {"measurement": "protein production", "value": "failed"}
    ]},
    {"sequence": "MTPNAPSTFNNMLLIAVFECRKFLFNLRGMIALIAFALVWGMLLLYPIQGASTLLMQPNIKDLIDGLFGNNALNVLFDWPVAEMAIFWCFALYLFPMFSILIAADQFSSDKTRGTLRFYTIRTSKDSLLFGRFLGQILIQGLLILLTILATIALALSRDASLLLPAISSGALVGVNLLIVILPFTAVMTLLSLYASTARQAMVLATILWTVVSIALLILGNESRLFEGLQWLLPGAQLSNMINTNGLNSLAYAPIPLLQTAIALFLGRIYFQRSQL", "values": [
      {"measurement": "protein production", "value": "failed"}
    ]},
    {"sequence": "MTPNEIAAKLSGLATKYHIRDVTLLAGRLLMSFIFLHEGVTLATHFDGAARAMAALGVGLPLFVATIALQLGAGLSVASGLLTRLGGIGLGLFCLATALLFHTNFASQNELLHFEKDLAISGGMFVLAAVGAGRFSLDWLLAGYLQKRQRDKEMARALLAVENQFSVDVQLPV", "values": [
      {"measurement": "protein production", "value": "failed"}
    ]},
    {"sequence": "MTPNNIVSRTEMDNGIQGFYKDKVVFLTGATGFLGKVIIEKLLRTTEVKRIYAMMRPKRGKDIQERLAIWQKDPLFEVLLKAKPDALKRIFVIAGDCLDPDLGINRSDRKLLVSEVHIVIHGAATVRFNEPLHVALAINTRGTRLMLQLAKEMLQLEAYLHISTAFSNCVIFRIEEKFYPEHLTCDANSVLAMSELLSEQMMDKLAPTLVGNFPNTYTYTKALAEDVVLREFGDLPLSIFRPSVIIATHEEPVSGWIDNLYGPIAHIYGVSHGVLRLTTYDKDGYASLVPVDYCANAALASIWQTSKDKSQRNAISQPAIYTLAPSEKNLLLNTDFIKHSLIHRNDFPLTKMIWYPFVHNISNPRIFPLAAFFYHTLPGYFYDLALRLSGRKPRLVKLYRSIHANIAVLEHFMNNSWHFETKSTDRLRVMMSPEDRRLYNFDMETLDWKEYFRKALFGMRLYLTKEPPTQESLEQGRRLFYRWLLIVDACQVIYLI", "values": [
      {"measurement": "protein production", "value": "failed"}
    ]},
    {"sequence": "MTPSAITLCFLIFAILMFALEKLPLAVTAMIVTVGLAVTGVLPAKEAFLGFVDTNVILFVAMFVIGGALFETGMANKIGGVVSRFAKSERQLMVVLMLITGLMSGILSNTGTSAILIPVILGIAMKSDFARSRLLMPMAFASTLGGNLSLIGSPNNLVVQGVLSQTGLKFGFFEYAKIGLPLLIVGILYFVFIGYRFLPQTLNTHVKKQDYHAFHHHHNIIPKWKQWLSLCVLIATLFAMVFEEVIGIKLYISACIGALILVIMRVITEKQAYQAIDSQVVFLFAGTLALADALKRTGAGADIAHSILSLLGDHPSTTALLLTILLLSCLLTNFMSNTATAALLAPIGLSIANSLNADPRAVLMAVVIGSSCAFATPIATPANTMILSVGQYKFTDYTKAGIPLIIISVLLSMLLLPIFFPLFL", "values": [
      {"measurement": "protein production", "value": "failed"}
    ]},
    {"sequence": "MTPVQLKNYLEQLVGNQIKTSTMIWGPPGIGKSSIVAQIAEEGKLRFIDLRLSQLAPTDLRGLPVAIPTSKTKPQTGTSAWYPPEFLPKDGAGILFLDELNMAPPAMQGVAQQLILDRRVGSYEVPTDWFIWAAGNRKEDRASVFEMPAPLANRFLHLDVQPDFESFKQYALEQKYHEQVIAFLSFRPGLIHKLDLQRPAWPSPRSWAIANGLHQVNLDVSPAVGEGCAAEFSAFVQLYKDLPDLEAIFRGQGQNIGFPTEPSSGYASTIGLAVRAKDATAGVNAFHWLTDKADSEWVQLFVTDMAGQLRRAGHLGALSIMAKKEPKLKQFMQGYQELLAILEHHHHHH", "values": [
      {"measurement": "protein production", "value": "not failed"}
    ]}
  ]
}
